B1: UNC93B1: N272Q (protein)
parent chain: MEVEPPLYPVAGAAGPQGDEDRHGVPDGPEAPLDELVGAYPNYNEEEEERRYYRRKRLGVVKNVLAASTGVTLTYGVYLGLLQMQLILHYDETYREVKYGNMGLPDIDSKMLMGINVTPIAALLYTPVLIRFFGTKWMMFLAVGIYALFVSTNYWERYYTLVPSAVALGMAIVPLWASMGNYITRMSQKYYEYSHYKEQDEQGPQQRPPRGSHAPYLLVFQAIFYSFFHLSFACAQLPMIYFLNNYLYDLNHTLINVQSCGTKSQGILNGFNKTVLRTLPRSKNLIVVESVLMAVAFLAMLMVLGLCGAAYRPTEEIDLRSVGWGNIFQLPFKHVRDFRLRHLVPFFIYSGFEVLFACTGFALGYGVCSMGLERLAYLLIAYSLGASASSVLGLLGLWLPRSVPLVAGAGLHLLLTLSLFFWAPAPRVLQHSWIFYFVAALWGVGSALNKTGLSTLLGILYEDKERQDFIFTIYHWWQAVAIFVVYLGSSLPMKAKLAVLLVTLVAAAASYLWMEQKLQQGLVPRQPRIPKPQHKVRGYRYLEEDNSDESDMEGEQGQGDCAEDEAPQAGPLGAEPAGPCRKPCPYEQALGGDGPEEQ
B2: UNC93B1: N251Q/N272Q (protein)
parent chain: B1 parent chain
B3: UNC93B1: N251Q (protein)
parent chain: B1 parent chain

Legend:
Details in all cases: glycan lost; control: UNC93B1(WT)
[1] = cycloheximide chase, anti-GFP blot, UNC93B1 KO iBMDM
[2] = cycloheximide chase, anti-myc blot, full-length and cleaved TLR9
[3] = confocal microscopy, TLR9-GFP with CD63-cherry, KO BMDC
[4] = TLR9 co-IP after CpG DNA, anti-MyD88 blot
[5] = blot of TLR9 in isolated phagosomes
[6] = streptavidin pull-down, anti-myc blot, KO iBMDM
[7] = confocal microscopy, colocalisation with CD63, KO BMDC

Protein	degradation_or_half_life [1]	other: stability and processing of client TLR9 [2]	other: endosomal localisation of client TLR9 [3]	other: MyD88 recruitment to TLR9 [4]	other: TLR9 trafficking to phagosomes [5]	other: CpG DNA binding by client TLR9 [6]	localisation_or_trafficking [7]
B1	no change	no change	no change	decreases	no change	no change	no change
B2				decreases			
B3	no change	no change	no change	no change		no change	no change

Source: publication PMC9301129
